Data as given in publication PMC4615653 (RNA Biology, 2015).

Target: the molecule itself
Test: zonal velocity sedimentation in a glycerol gradient

B1: CshA-His6 (natural protein, S. aureus, UniProt Q2FWH5 1-506, looked up)
chain: MQNFKELGISDNTVQSLESMGFKEPTPIQKDSIPYALQGIDILGQAQTGTGKTGAFGIPLIEKVVGKQGVQSLILAPTRELAMQVAEQLREFSRGQGVQVVTVFGGMPIERQIKALKKGPQIVVGTPGRVIDHLNRRTLKTDGIHTLILDEADEMMNMGFIDDMRFIMDKIPAVQRQTMLFSATMPKAIQALVQQFMKSPKIIKTMNNEMSDPQIEEFYTIVKELEKFDTFTNFLDVHQPELAIVFGRTKRRVDELTSALISKGYKAEGLHGDITQAKRLEVLKKFKNDQINILVATDVAARGLDISGVSHVYNFDIPQDTESYTHRIGRTGRAGKEGIAVTFVNPIEMDYIRQIEDANGRKMSALRPPHRKEVLQAREDDIKEKVENWMSKESESRLKRISTELLNEYNDVDLVAALLQELVEANDEVEVQLTFEKPLSRKGRNGKPSGSRNRNSKRGNPKFDSKSKRSKGYSSKKKSTKKFDRKEKSSGGSRPMKGRTFADHQK
  stoichiometry N: 2
